T1: Recombinant CD7 protein (ACRO biosystems, Cat No CD-H52H7), labeled with Alexa Fluor 647 (UniProt P09564 26-180, limits assumed, Alexa Fluor 647 NHS Ester label, sites not stated)
T1 construct: Bought protein; also called fluorescently labelled CD7; Alexa Fluor 647-labeled CD7
T1 sequence (looked up): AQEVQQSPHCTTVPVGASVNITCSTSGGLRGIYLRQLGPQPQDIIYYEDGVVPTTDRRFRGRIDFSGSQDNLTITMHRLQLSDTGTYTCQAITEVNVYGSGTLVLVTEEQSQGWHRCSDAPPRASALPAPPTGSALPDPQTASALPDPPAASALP


Biological target: T1, Recombinant CD7 protein (ACRO …)
Test: microfluidic antibody-affinity profiling (MAAP), Fluidity One-W, hybridoma supernatant with Alexa Fluor 647-labelled CD7, Bayesian inference

Row | Kd | Binder
1 | 13.6 nM | 124.1D1 murine anti-CD7 mAb (antibody, V domains shown, Murine monoclonal antibody, tested as hybridoma culture supernatant; also called CD7_124.1D1) VH: DVQLQESGPGLVKPSQSLSLTCTVTGYSITSDYAWNWIRQFPGNKLEWLGYISYSGSTSYNPSLKSRISITRDTSKNQFFLQLNSVTTEDTATYYCAKSQLGRWAMDYWGQGTSVTVSS VL: DILLTQSPAILSVSPGERVSFSCRASQSIGTSIHWYQQRTNDSPRLLIKYASESISGIPSRFSGSGSGTDFTLNINSVESEDIADYYCQQSISWPLTFGPGTKLELK
2 | 22.4 nM | 142.24 murine anti-CD7 mAb (antibody, V domains shown, Murine monoclonal antibody, tested as hybridoma culture supernatant; also called CD7_142.24) VH: QLVQSGPEVKKPGETVKISCKASGYSFTHYGVNWVKQAPGKGLKWMGWINTNTGKPTYAEDFKGRFAFSLETSARTAYLQINNLKNEDTATYFCARWSTTVVAPYFDVWGAGTTVTVSS VL: DILLTQSPAILSVSPGERVSFSCRASQNIGTSIHWFQQRSNGSPSLLIKYASESMSGIPSRFSGSGSGTDFTLSINSVEPEDIADYYCQQSNRWPYTFGGGTKLEIK
3 | 52.4 nM | 142.9 murine anti-CD7 mAb (antibody, V domains shown, Murine monoclonal antibody, tested as hybridoma culture supernatant; also called CD7_142.9) VH: QVQLQQSGAELVRPGTSVKISCKASGYTFTNYWLGWVKQRPGHGLEWIGDFYPGSIYTNYNENFQGKATLTADTSSSTAYMQLSSLTSEDSAVYFCAREGDYYGSGHFDYWGQGTTLTVSS VL: EILLTQSPAIIAASPGEKVTITCSARSSVSYMNWYQQKSGSSPKIWIYGISNLASGVPARFSGSGSGTSFSFTINSMEAEDVAYYYCQLRSSYSRTFGGGTKLEIK
